IntAct's records for PubMed 27273569

Target: wsb1_human WSB1 (UniProt Q9Y6I7)
Chain of UniProt Q9Y6I7 (Q9Y6I7 whole entry): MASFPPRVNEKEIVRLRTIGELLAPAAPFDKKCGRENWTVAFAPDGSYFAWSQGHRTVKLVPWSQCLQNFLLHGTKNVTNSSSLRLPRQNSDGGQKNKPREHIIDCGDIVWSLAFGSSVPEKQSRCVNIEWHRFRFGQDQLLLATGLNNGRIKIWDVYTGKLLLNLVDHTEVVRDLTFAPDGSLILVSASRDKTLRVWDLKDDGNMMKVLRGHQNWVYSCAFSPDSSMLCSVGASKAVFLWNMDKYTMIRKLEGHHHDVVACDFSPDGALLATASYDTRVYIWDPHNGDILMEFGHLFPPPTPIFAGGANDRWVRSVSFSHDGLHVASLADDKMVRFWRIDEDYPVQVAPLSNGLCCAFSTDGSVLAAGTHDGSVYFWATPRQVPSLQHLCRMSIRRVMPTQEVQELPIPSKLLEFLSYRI

- effect of a mutation on the interaction: with no effect
Substance: Leucine-rich repeat serine/threonine-protein kinase 2 (Homo sapiens), Q5S007 G2019S
